This data set has as its system Cabin 1-14.

The results in this text go back to patent US6686450.

Chain of Cabin 1-14 (chain, as listed by the source): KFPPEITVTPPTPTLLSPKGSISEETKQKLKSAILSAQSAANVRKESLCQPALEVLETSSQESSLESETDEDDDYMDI

On to “calcineurin (endogenous, Jurkat T cells)”, for which the “dephosphorylation of ΔNF-AT1 (Western blot gel shift) upon ionomycin with or without PMA” value is recorded as “Overexpression of Cabin 1-14 inhibited the dephosphorylation of ΔNF-AT 1 upon treatment with ionomycin in the presence or absence of PMA”.
